B1: GN11: lysin obtained from Pseudomonas putida KT2440 (SEQ ID NO: 208) (protein, listed as Pseudomonas putida)
chain: MTYNAGTKPRAETDYLVVHCSATRPSQDIGAADINRWHRAKGWRCIGYHFVIRRNGVVEEGRELDQIGAHVEGHNINSVGICMAGGVTEADINVPENNFTPEQFASLKHLLGELKEKYPSATIQGHRDFPKVAKACPSFDVKPWVAANL
B2: GN7: lysin obtained from a marine metagenome (SEQ ID NO: 206) (protein)
chain: MTPFDHALELTLGLEGGYSNHLMDRGGETMCGITEAVARRHGWEGEMRDLPIEMVRHIYKVDYWDPLMGDYLGEHNPELAEELFDTAVNCGVGFASKILQKSINVLNRNRTEDIAEDGQIGPQTLKALRDLARRDYDYLLECCKILQGNHYISLAHRDPTQRIFIRGWLTRV
modifications: GOS_4958713 hypothetical protein GOS_4958713, partial [marine metagenome]

Assays:
[1] = test system: carbepenam-resistant clinical isolate WC-453; assay: MIC in CAA without or with 25% human serum (Table 5); format: cell-based, Pseudomonas aeruginosa; settings: for CAA/HuS MIC: CAA supplemented with 25% human serum
Method: MIC values were determined using a modification of the standard broth microdilution reference method defined by the Clinical and Laboratory Standards Institute (CLSI), CLSI. […] Methods for Dilution Antimicrobial Susceptibility Tests for Bacteria That Grow Aerobically; Approved Standard-10th Edition. Clinical and Laboratory Standards Institute, Wayne, Pa.

[2] = test system: P. aeruginosa strain WC-453; assay: Time-kill assay in HEPES or CAA with 25% human serum (Tables 7, 8); format: cell-based, Pseudomonas aeruginosa; settings: lysin 10 μg/ml, WC-453; for HEPES (Log10 CFU/mL), 1 hr / HEPES (Log10 CFU/mL), 3 hr: 25 mM HEPES pH 7.4
Method: Exponential phase bacteria were then pelleted and resuspended in 1/5 culture volume of 25 mM HEPES, pH 7.4 before a final adjustment to an optical density corresponding to a McFarland value of 0.5. […] All treatments were incubated at 37° C. with aeration. At time points before the addition of lysin (or buffer control) and at 1 hour and 3 hours intervals thereafter, culture samples were removed for quantitative plating on CAA agar plates.

[3] = Isoelectric point (pI) of the polypeptides; format: physicochemical
Excerpt: By comparing the sequences and components of the various polypeptides, the effect of a particular structural modification on isoelectric point (a higher pI favors outer membrane penetration) and activity (as assessed by MIC) can be determined.

Row | Molecule | activity in CAA supplemented with human serum (25%) [1] | CAA MIC [1] | CAA/HuS MIC [1] | HEPES (Log10 CFU/mL), 1 hr ([2]; 1 hr) | HEPES (Log10 CFU/mL), 3 hr ([2]; 3 hr) | pI (isoelectric point) [3] | CAA/HuS (Log10 CFU/mL), 1 hr ([2]; CAA + 25% human serum, 1 hr) | CAA/HuS (Log10 CFU/mL), 3 hr ([2]; CAA + 25% human serum, 3 hr)
1 | B1 | active | 32 | 128 | 6.7 Log10 CFU/mL | <3.7 Log10 CFU/mL | 7.3 |  | 
2 | B2 | active | >128 | 128 | 7.5 Log10 CFU/mL | 6.2 Log10 CFU/mL | 5.6 | 7.0 Log10 CFU/mL | 7.0 Log10 CFU/mL

Reference: patent US20210324359A1, “USE OF GRAM-NEGATIVE LYSIN-ANTIMICROBIAL PEPTIDE (AMP) POLYPEPTIDE CONSTRUCTS IN TREATING ENDOCARDITIS” (priority 2020, published 2021)
